Test results from US20160116478A1 (ORDER MADE MEDICAL RESEARCH, published 2016).

Assays:
[1] = target: T1, partial protein of human LGR4 (amino acids 311 to 577) (human, UniProt Q9BXB1 311-577); test: Western blot of E. coli lysate expressing the partial protein
T1 construct: Run as crude E. coli culture lysate, denatured, on SDS-PAGE and Western blot; also called LGR4 partial protein; partial protein of LGR4; not shown: N-terminal Trx-, S- and His-tags from pET32b vector; C-terminal His-tag from pET32b vector
T1 sequence: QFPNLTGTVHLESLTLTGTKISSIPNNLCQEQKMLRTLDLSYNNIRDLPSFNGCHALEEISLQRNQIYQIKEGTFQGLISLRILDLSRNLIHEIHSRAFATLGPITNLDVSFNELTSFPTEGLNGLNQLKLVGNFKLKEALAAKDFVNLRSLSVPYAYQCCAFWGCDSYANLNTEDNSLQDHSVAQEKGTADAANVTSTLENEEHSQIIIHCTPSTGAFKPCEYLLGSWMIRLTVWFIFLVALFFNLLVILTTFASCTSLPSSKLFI
Protocol: (§1) After electrophoresis, the proteins were transferred onto a PVDF membrane. Skimmed milk dissolved at a concentration of 5% (w/v) in TBS-T was used to block the membrane at room temperature for 30 minutes, and the membrane was washed twice with TBS-T. Among the monoclonal antibodies obtained in Example 1. (7), Mu2C15 was diluted to 1 μg/mL with TBS-T and reacted with the membrane for 1 hour at room temperature. After washing three times with TBS-T, anti-mouse IgG polyclonal antibody-HRP label was diluted 100,000-fold with TBS-T for use as a secondary antibody. This dilution was reacted with the membrane at room temperature for 30 minutes, followed by washing three times with TBS-T. The membrane was soaked in Immobilon and then wrapped, followed by signal detection with LAS-3000 (FIG. 15b)

[2] = target: T2, partial protein of human LGR5 (amino acids 319 to 563) (human, UniProt O75473 319-563); test: as above
T2 construct: Run as crude E. coli culture lysate, denatured, on SDS-PAGE and Western blot; also called LGR5 partial protein; partial protein of LGR5; not shown: N-terminal Trx-, S- and His-tags from pET32a vector; C-terminal His-tag from pET32a vector
T2 sequence: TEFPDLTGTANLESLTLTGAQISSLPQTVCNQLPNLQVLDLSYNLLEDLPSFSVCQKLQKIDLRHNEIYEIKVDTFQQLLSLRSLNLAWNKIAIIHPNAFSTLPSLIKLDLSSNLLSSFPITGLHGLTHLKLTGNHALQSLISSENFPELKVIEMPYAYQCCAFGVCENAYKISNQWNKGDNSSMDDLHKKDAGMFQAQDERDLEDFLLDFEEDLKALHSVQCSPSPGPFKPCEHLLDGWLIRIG
Protocol: as §1

B1: Mu2C15 antibody (monoclonal antibody produced by Mouse-Mouse hybridoma Mu2C15) (antibody, V domains shown)
VH: QVQLQQSAAELARPGASVKMSCKASGYTFTTYTMHWVKQRPGQGLEWIGYINPNNGYTEFNQKFKDKTTLTADKSSSTAYMQLSSLTSEDSAVYYCARRDYYRFSTGFAYWGQGTLVTVSA
VL: DVVMTQTPLSLPVSLGDQASISCRSSQSLVHTNGNTYLHWYLQKPGQSPKLLIYKVSNRFSGVPDRFSGSGSGTDFTLKISRVEAEDLGVYFCSQSTHVPYTFGGGTKLEIK
notes: Mouse hybridoma antibody; Used as culture supernatant or Protein G purified, and unlabeled when immobilized in the sandwich ELISA; also called clone No. Mu2C15; anti-LGR6 antibody
Question: Which results are given for B1?
Answer: binding result [1]: no binding (tested: 1 µg/mL); binding result [2]: no binding (tested: 1 µg/mL)
